Marks after values point to notes of the source that are not given here.
Tests used:
Faecalibacterium = test: Microbiota analysis of broiler trial 4 (16S rRNA), Faecalibacterium; type: in vivo, chicken; set-up: key to Observed shift compared to the control group, Significance: Significant change (+++), padj < 0.05; Numerical change (+); details: 50 ppm
chicken gut microbiota = test: Microbiota analysis of broiler trial 4 (16S rRNA), overall composition; type: in vivo; details: 50 ppm; ceca content
[1] = In vivo broiler trial 4, FCR and EPEF; set-up: species or system male broiler type chickens (Cobb 500); details: 50 mg/kg in Grower feed (Days 8-24)
Description: Diet composition was designed to meet or exceed the requirements except for metabolisable energy, phosphorus and calcium (tables 15 and 16). […] During the Grower period, the lysozyme (SEQ ID NO: 1) was applied at […] as a liquid formulation (table 14). There were no other enzymes or any coccidiostats supplemented in the diets. The diets were prepared at a […] specialised in experimental diets and the mash feed was offered ad libitum to the birds. At the day of hatching, male day-old broiler type chickens (male byproducts of female parental line of Cobb 500) were obtained from Cobb Germany […] GmbH, […] (Brö[…] birds were randomly assigned in groups of 22 chickens to the experimental pens ( 3 sq·m.) equipped with a bell drinker and a round feeder. After 7 days of equal rearing, number of birds per pen was reduced to 20, selecting against obviously light birds. Recorded body weights (BW) were immediately statistically evaluated. In order to ensure similar average BW between treatments and variation within treatments statistical evaluation of BW-placement of chicks was coordinated in such a way as to minimize within-pen variation and between-treatment differences of average BW. Feed and water were freely available, feed consumption was recorded. Initial bedding consisted of wood shavings. Caked excreta patches around the drinkers were removed several times during the experimental period and more bedding material was added when required. Light and temperature regimes were managed according to the breeder's recommendations. Birds were weighed (groupwise) at placement and at the end of each fattening period. At the final weighing, birds were weighed individually. Feed offered was recorded continuously upon refilling the feeders; the feed remaining in the feeders was recorded at the end of each fattening period. […] Daily BW gain per bird (BW gain) and feed conversion ratio (FCR) were calculated as follows: BWgain: difference between BW per bird at the end and at the beginning of the study divided by the number of days FCR: total feed consumption of a pen divided by total BW gain of that pen (total BW gain=total BW at the end+weight of removals and losses-total BW at the beginning) The European Production Efficacy Factor (EEF) was calculated as follows: EEF=[(liveability,%×BWgain,kg)/(Study duration in days×FCR)]×100. Statistical Analysis Data of performance was analysed using a bi-factorial ANOVA (procedure PROC GLM) with the fixed effects of lysozyme supplementation as well as their interaction. Differences were investigated between the various levels of each main factor (Tukey test), accounting for multiple comparisons where appropriate.

[2] = In vivo broiler trial 1, growth performance; set-up: species or system male broiler chickens (ROSS PM3)
Bacteroidales = test: Microbiota analysis of broiler trial 4 (16S rRNA), Bacteroidales; type: in vivo, chicken; set-up: key to Observed shift compared to the control group, Significance: Significant change (+++), padj < 0.05; Numerical change (+); details: 50 ppm
[3] = Grower (d 22-36), 25 mg/kg feed
[4] = Grower (d 22-36), 50 mg/kg feed
[5] = Grower (d 22-36), 100 mg/kg feed
[6] = Grower (d 22-36), 200 mg/kg feed
[7] = Starter (d 1-22), 25 mg/kg feed
[8] = Starter (d 1-22), 50 mg/kg feed
[9] = Starter (d 1-22), 100 mg/kg feed
[10] = Starter (d 1-22), 200 mg/kg feed
[11] = Whole period (d 1-36), 25 mg/kg feed
[12] = Whole period (d 1-36), 50 mg/kg feed
[13] = Whole period (d 1-36), 100 mg/kg feed
[14] = Whole period (d 1-36), 200 mg/kg feed

B1: SEQ ID NO: 1: mature amino acid sequence of a wild type GH25 lysozyme from Acremonium alcalophilum with N-terminal SPIRR (protein)
chain: SPIRRRIPGFDISGWQPTTDFARAYANGDRFVYIKATEGTTFKSSAFSRQYTGATQNGFIRGAYHFAQPAASSGAAQARYFASNGGGWSKDGITLPGALDIEYNPNGATCYGLSQSAMVNWIEDFVTTYHGITSRWPVIYTTTDWWTQCTGNSNRFANRCPLWIARYASSVGTLPNGWGFYTFWQYNDKYPQGGDSNWFNGDASRLRALANGD
modifications: Wild type sequence with N-terminal SPIRR
- Observed shift compared to the control group, Significance (Faecalibacterium; Genus level (Faecalibacterium)): +
- Observed shift compared to the control group, Significance (Faecalibacterium; OTU level (Faecalibacterium species)): +++ (Significant change (+++), padj < 0.05)
- OTU #27 (Faecalibacterium) Change vs control (Faecalibacterium; OTU level): 3.45
- OTU #27 (Faecalibacterium) Ratio vs control (Faecalibacterium; OTU level): 16.53
- OTU #27 (Faecalibacterium) abundance, Lysozyme treatment (Faecalibacterium; OTU level, ceca content): 3.67
- Faecalibacterium Change vs control (Faecalibacterium; genus level): 5.65
- Faecalibacterium Ratio vs control (Faecalibacterium; genus level): 4.04
- Faecalibacterium abundance, Lysozyme treatment (Faecalibacterium; genus level, ceca content): 7.50
- Observed shift in the composition of the microbiota compared to the control group, Significance (chicken gut microbiota): +++ (Significant change (+++), p-value < 0.05)
- EPEF [1]: 327
- FCR [1]: 1.56
- EPEF % improvement ([1]; vs no lysozyme): 3.8%
- EPEF change ([1]; vs no lysozyme): 12
- FCR % improvement ([1]; vs no lysozyme): 1.9%
- FCR change ([1]; vs no lysozyme): 0.03
- Improvement of FCR compared to the control diet ([2]; 25 mg/kg): 3.3%
- Improvement of FCR compared to the control diet ([2]; 50 mg/kg): 2.9%
- Improvement of FCR compared to the control diet ([2]; 100 mg/kg): 3.2%
- FCR [2, 3]: 1.676^c
- FCR, Relative to C (%) [2, 3]: 96.7%
- Feed intake [2, 3]: 3004^ab g/b
- Feed intake, Relative to C (%) [2, 3]: 98.5%
- Weight gain [2, 3]: 1792 g/b
- Weight gain, Relative to C (%) [2, 3]: 101.9%
- FCR [2, 4]: 1.683^bc
- FCR, Relative to C (%) [2, 4]: 97.1%
- Feed intake [2, 4]: 2939^ab g/b
- Feed intake, Relative to C (%) [2, 4]: 96.4%
- Weight gain [2, 4]: 1747 g/b
- Weight gain, Relative to C (%) [2, 4]: 99.3%
- FCR [2, 5]: 1.662^c
- FCR, Relative to C (%) [2, 5]: 95.8%
- Feed intake [2, 5]: 2870^b g/b
- Feed intake, Relative to C (%) [2, 5]: 94.1%
- Weight gain [2, 5]: 1729 g/b
- Weight gain, Relative to C (%) [2, 5]: 98.2%
- FCR [2, 6]: 1.742^a
- FCR, Relative to C (%) [2, 6]: 100.5%
- Feed intake [2, 6]: 2934^ab g/b
- Feed intake, Relative to C (%) [2, 6]: 96.2%
- Weight gain [2, 6]: 1685 g/b
- Weight gain, Relative to C (%) [2, 6]: 95.7%
- FCR [2, 7]: 1.781^ab
- FCR, Relative to C (%) [2, 7]: 98%
- Feed intake [2, 7]: 1985 g/b
- Feed intake, Relative to C (%) [2, 7]: 99.5%
- Weight gain [2, 7]: 1115 g/b
- Weight gain, Relative to C (%) [2, 7]: 101.3%
- FCR [2, 8]: 1.793^ab
- FCR, Relative to C (%) [2, 8]: 98.7%
- Feed intake [2, 8]: 1977 g/b
- Feed intake, Relative to C (%) [2, 8]: 99.1%
- Weight gain [2, 8]: 1102 g/b
- Weight gain, Relative to C (%) [2, 8]: 100.1%
- FCR [2, 9]: 1.723^bc
- FCR, Relative to C (%) [2, 9]: 94.9%
- Feed intake [2, 9]: 1941 g/b
- Feed intake, Relative to C (%) [2, 9]: 97.3%
- Weight gain [2, 9]: 1127 g/b
- Weight gain, Relative to C (%) [2, 9]: 102.4%
- FCR [2, 10]: 1.696^c
- FCR, Relative to C (%) [2, 10]: 93.4%
- Feed intake [2, 10]: 1946 g/b
- Feed intake, Relative to C (%) [2, 10]: 97.6%
- Weight gain [2, 10]: 1148 g/b
- Weight gain, Relative to C (%) [2, 10]: 104.2%
- FCR [2, 11]: 1.716^bc
- FCR, Relative to C (%) [2, 11]: 97.3%
- Feed intake [2, 11]: 4991^ab g/b
- Feed intake, Relative to C (%) [2, 11]: 98.9%
- Weight gain [2, 11]: 2908 g/b
- Weight gain, Relative to C (%) [2, 11]: 101.6%
- FCR [2, 12]: 1.727^b
- FCR, Relative to C (%) [2, 12]: 97.9%
- Feed intake [2, 12]: 4920^ab g/b
- Feed intake, Relative to C (%) [2, 12]: 97.5%
- Weight gain [2, 12]: 2849 g/b
- Weight gain, Relative to C (%) [2, 12]: 99.6%
- FCR [2, 13]: 1.686^c
- FCR, Relative to C (%) [2, 13]: 95.6%
- Feed intake [2, 13]: 4815^b g/b
- Feed intake, Relative to C (%) [2, 13]: 95.4%
- Weight gain [2, 13]: 2856 g/b
- Weight gain, Relative to C (%) [2, 13]: 99.8%
- FCR [2, 14]: 1.722^b
- FCR, Relative to C (%) [2, 14]: 97.6%
- Feed intake [2, 14]: 4877^ab g/b
- Feed intake, Relative to C (%) [2, 14]: 96.6%
- Weight gain [2, 14]: 2832 g/b
- Weight gain, Relative to C (%) [2, 14]: 99%
- Improvement of weight gain compared to the control diet ([2]; day 1 to day 36, 25 mg/kg): 1.6%
- Improvement of FCR compared to the control diet ([2]; starter period, 25 mg/kg): 2.0%
- Improvement of weight gain compared to the control diet ([2]; starter period, 25 mg/kg): 1.3%
- Improvement of FCR compared to the control diet ([2]; starter period, 100 mg/kg): 5.1%
- Improvement of weight gain compared to the control diet ([2]; starter period, 100 mg/kg): 2.4%
- Improvement of FCR compared to the control diet ([2]; starter period, 200 mg/kg): 6.6%
- Improvement of weight gain compared to the control diet ([2]; starter period, 200 mg/kg): 4.2%
- Observed shift compared to the control group, Significance (Bacteroidales; Order level (Bacteroidales)): +
- Bacteroidales Change vs control (Bacteroidales; order level): −15.8551
- Bacteroidales Ratio vs control (Bacteroidales; order level): 0.7538
- Bacteroidales abundance, Lysozyme treatment (Bacteroidales; order level, ceca content): 48.5437
